Measurements published in patent publication US7556938B1, “Nucleic acids encoding potassium channel interactors” (Millennium Pharmaceuticals, Inc., priority 1998, dated 2009).

Columns and labels:
rKv4.3N = molecular target: T1, rKv4.3N (Rattus norvegicus, UniProt Q62897); test: Yeast two-hybrid binding and specificity test, Kv4.3 N-terminal bait
T1 construct: expressed in transfected cells; host or cells: yeast HF7c (bait), mated with Y187 (fish)
T1 sequence (Q62897 1-180): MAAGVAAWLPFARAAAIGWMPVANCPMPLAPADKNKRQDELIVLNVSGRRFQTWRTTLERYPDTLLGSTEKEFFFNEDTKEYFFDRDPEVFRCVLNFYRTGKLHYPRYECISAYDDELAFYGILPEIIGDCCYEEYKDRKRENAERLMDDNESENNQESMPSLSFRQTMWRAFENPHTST
Summary of the method: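 Bait of rat Kv4.3 residues 1–180 in pGBT9, expressed in yeast HF7c, screened against a rat midbrain library. Positives scored by His and filter β-galactosidase reporters. Specificity tested by mating prey (in Y187) against a panel of related and unrelated baits and checking reporter activity.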

HKv2.1 = molecular target: T2, HKv2.1 (Homo sapiens, UniProt Q14721); test: Two-electrode voltage clamp of Kv2.1 currents in Xenopus oocytes coexpressing 1v; format: cell-based
T2 sequence (Q14721 1-858): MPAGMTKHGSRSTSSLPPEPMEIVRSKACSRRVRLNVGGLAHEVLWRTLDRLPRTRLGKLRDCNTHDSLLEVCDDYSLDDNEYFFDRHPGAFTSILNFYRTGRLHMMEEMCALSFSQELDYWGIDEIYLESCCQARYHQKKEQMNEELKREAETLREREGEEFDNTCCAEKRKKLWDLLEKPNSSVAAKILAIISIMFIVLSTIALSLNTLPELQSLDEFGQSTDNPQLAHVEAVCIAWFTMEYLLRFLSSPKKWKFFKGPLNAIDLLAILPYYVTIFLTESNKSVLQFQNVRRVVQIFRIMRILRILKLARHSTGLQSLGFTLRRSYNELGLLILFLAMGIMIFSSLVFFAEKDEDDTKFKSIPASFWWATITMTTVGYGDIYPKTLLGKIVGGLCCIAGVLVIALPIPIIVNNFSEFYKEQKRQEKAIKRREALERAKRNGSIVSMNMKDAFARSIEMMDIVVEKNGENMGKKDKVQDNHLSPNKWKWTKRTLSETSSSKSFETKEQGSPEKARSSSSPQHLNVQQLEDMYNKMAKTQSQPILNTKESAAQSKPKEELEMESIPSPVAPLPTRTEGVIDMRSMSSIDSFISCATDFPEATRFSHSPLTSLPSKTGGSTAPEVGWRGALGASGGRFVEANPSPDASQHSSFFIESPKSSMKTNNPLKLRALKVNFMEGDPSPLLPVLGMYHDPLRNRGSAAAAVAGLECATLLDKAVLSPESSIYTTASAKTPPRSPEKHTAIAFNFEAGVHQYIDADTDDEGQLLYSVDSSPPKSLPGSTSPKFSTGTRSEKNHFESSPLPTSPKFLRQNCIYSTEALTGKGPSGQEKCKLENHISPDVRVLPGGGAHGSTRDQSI
Method: Frogs underwent no more than two surgeries and surgeries were performed by well established techniques. Frogs were anesthetized with ice. Total cRNA (1-10 ng) was injected into stage IV Xenopus oocytes that were harvested the previous day. The Xenopus oocytes were incubated in ND96 containing (in mM) 96 NaCl, 2 KCl, 1.8 CaCl2, 1 MgCl2, 5 HEPES, pH 7.6, plus (Gentamycin 50 μg/ml) at 18° C. Xenopus oocytes were studied 3-7 days after injection. The two-electrode voltage-clamp recordings were performed in ND96 solution using a TURBO TEC 03 Clamp Amplifier (ALA Scientific Instruments, Westbury, N.Y.). Both electrodes were filled with 3 M KCl and had electrode resistances ranging from 0.2-1 MOhm. The current signals were filtered at 1000 Hz before transferred on a PC (Gateway, Calif.) using the PULSE software (HEKA, Germany).
To investigate whether the modulatory effects of these KChIPs are specific for Kv4 channels, KChIP1 was coexpressed with Kv1.4 and Kv2.1 in Xenopus oocytes. Xenopus oocytes were injected with 1-3 ng/oocyte of cRNA which was prepared using standard in vitro transcription techniques (Sambrook et al. 1989. Molecular Cloning: a laboratory manual, Cold Spring Harbor Press). Currents in Xenopus oocytes were measured with a two-electrode voltage clamp. […] As a final control for the KChIP effects and to verify that the KChIPs' effects on Kv4 currents are independent of expression system, the above kinetic analyses were repeated after expressing Kv4.3 and KChIP mRNAs in Xenopus oocytes. The effects KChIP1 on for Kv4.3 in the Xenopus oocyte system were strikingly similar to those on Kv4.2 in CHO cells (Table 1).

- binding to rKv4.3N in yeast two-hybrid assay (rKv4.3N): able to bind to the Kv4.3 polypeptide
- effect on Kv2.1 currents (HKv2.1): did not appear to have any effect
- Activation V1/2 (mV) (HKv2.1; HKv2.1 + 1v): 12.4 mV
- Steady-state Inactivation V1/2 (mV) (HKv2.1; HKv2.1 + 1v): −23.9 mV
- Peak Current (μA/cell at 50 MV) (HKv2.1; HKv2.1 + 1v, at 50 mV): 2.9 ± 0.37 μA/cell
- Inactivation time constant (at 50 mV) (HKv2.1; HKv2.1 + 1v, at 50 mV, listed as head says ms, cell prints s): 1.7 s 0.078
B1: KChIP1: Potassium channel interacting protein 1v, a Ca2+-binding protein that binds and modulates Kv4 channels (protein)
chain: MPARVLLAYPGTEMLTQGESEGLQTLGIVVVLCSSLKLLHYLGLIDLSDDKIEDDLEMTMVCHRPEGLEQLEAQTNFTKRELQVLYRGFKNECPSGVVNEETFKQIYAQFFPHGDASTYAHYLFNAFDTTQTGSVKFEDFVTALSILLRGTVHEKLRWTFNLYDINKDGYINKEEMMDIVKAIYDMMGKYTYPVLKEDTPRQHVDVFFQKMDKNKDGIVTLDEFLESCQEDDNIMRSLQLFQNVM
